Our source for the Kd values is paper PMC3192843.

This data set relates to nsp16;nsp10 (SARS-CoV strain WHU;SARS-CoV strain WHU). As to the kind of experiment: ITC. The conditions noted are these: 5' m7GpppA cap-0.

Take m7GpppA-RNA: the Kd (usually the free concentration of one partner at which half of the binding sites on the other are occupied at equilibrium, for simple one-to-one binding) was determined as 1210 nM.
